Test results from publication PMC6222107 (The Journal of Biological Chemistry, 2018).

Legend:
[1] = test system: CNC(Cc1ccc(O)c(O)c1)C(=O)O; test: steady-state oxygen depletion, oxygen sensor; format: biochemical, Aspergillus fumigatus; conditions: pH 7.6, 25 °C, 100 mM Tris/HCl, 150 mM NaCl, air-saturated (O2 co-substrate)
From the text: (§1) steady-state oxygen depletion, oxygen sensor on FsqB

[2] = test system: CN[C@@H](Cc1ccc(O)cc1)C(=O)O; test: steady-state oxygen depletion, oxygen sensor; format: biochemical, Aspergillus fumigatus; conditions: pH 7.6, 25 °C, 100 mM Tris/HCl, 150 mM NaCl, air-saturated (O2 co-substrate)
From the text: as §1

CNC(Cc1cccc(O)c1)C(=O)O = test: steady-state oxygen depletion, oxygen sensor; format: biochemical, Aspergillus fumigatus; conditions: pH 7.6, 25 °C, 100 mM Tris/HCl, 150 mM NaCl, air-saturated (O2 co-substrate), error ± 0.6
From the text: as §1

[3] = test system: CN[C@@H](Cc1ccc(O)c(O)c1)C(=O)O; test: steady-state oxygen depletion, oxygen sensor; format: biochemical, Aspergillus fumigatus; conditions: pH 7.6, 25 °C, 100 mM Tris/HCl, 150 mM NaCl, air-saturated (O2 co-substrate)
From the text: as §1

[4] = molecular target: the molecule itself; test: crystal structure; hexagonal crystals (P6522), one chain in the asymmetric unit; dimer with a symmetry-related molecule by a crystallographic 2-fold axis, analysed with the EBI-Pisa server; 2.6 A

Molecule | Km [1] | kcat [1] | kcat/Km [1] | Km [2] | kcat [2] | kcat/Km [2] | Km (CNC(Cc1cccc(O)c1)C(=O)O) | kcat (CNC(Cc1cccc(O)c1)C(=O)O) | kcat/Km (CNC(Cc1cccc(O)c1)C(=O)O) | Km [3] | kcat [3] | kcat/Km [3] | binding result [4]
FsqB (Aspergillus fumigatus Af293) | 160 ± 10 µM | 8.5 ± 0.1 s⁻¹ | 53000 ± 4000 M⁻¹ s⁻¹ | 2100 ± 200 µM | 3.9 ± 0.2 s⁻¹ | 1910 ± 20 M⁻¹ s⁻¹ | 1600 ± 200 µM | 3.5 ± 0.1 s⁻¹ | 2180 ± 40 M⁻¹ s⁻¹ | 270 ± 20 µM | 8.2 ± 0.2 s⁻¹ | 30000 ± 3000 M⁻¹ s⁻¹ | –
FsqB (fumisoquin biosynthesis gene B product), flavoprotein of the amine oxidase family (enzyme, Aspergillus fumigatus, FAD covalently bound through its 8alpha-methyl group to Cys-414, FsqB of Aspergillus fumigatus, gene Afu6g03440, codon-optimized synthetic gene in pET21a; the domains described in the structure span residues 1-496; Molecular mass printed as 55 kDa; Dimer generated by a crystallographic 2-fold axis; one chain in the asymmetric unit; also called WT FsqB; Afu6g03440) MSIPNSFIIVGSGVFGLSLAYALSLDDRFADKKIILVDRWNFEPPNATGSVHNPAAANADTSRVIRRDYPHGPYASLALEAMKHWRGKFGENNRYVNQRLLFSGEGSSLTTPPKALETVNYIKKAYAISCELTPGGRDAVQVLDSLDEVRAFLGNTPSHPPHLPVNKDPAARDLRGYVSNDCGWADAGASIEWLRQEVLRLGRVECVVGEVESLVYSDDQRAVKGVKLVDGKVLTAELTVIAAGARSSHILGIPKLCDVYSEFVAYIQLTKEEADELRRRQWPILVNCHRGVFAVGPDHDNCLKFGHFSYSGIVDVLREASIQVPTRPDGWEAQQKYWSDPRFAFGGEVKVSALGDVDDYENPAAQRALADYRLFLLELLGPTGLQGVDTLGLDQSDNLLNNIANRPFTRVRKCWYNDTPALDFVVDYHPSYGKTLFVATGGCDHAFKFLPIIGEKTLALILRNRGDSAVSLPAGVEPSLEELSELWRFPVELLQDN | – | – | – | – | – | – | – | – | – | – | – | – | binds
